Measured values: article PMC11425648

Target: free UbcH8 (Ube2L6), GST tag removed (human)
Assay: SAXS; free UbcH8 (GST removed) at 300 μM, 10 °C, six 10-min frames; dimer crystal structure 1WZV fitted to the dummy atom model

“free UbcH8 (Ube2L6), GST tag removed (enzyme)” gave a stoichiometry N of 2.
